Experimental data published in paper PMC8582233.

Target: Recombinant SARS-CoV-2 S trimer (SARS-CoV-2) (UniProt P0DTC2)
Assay: MST

| Substance | Kd [µM] |
| --- | --- |
| Recombinant DC-SIGN/CD209 (from UniProt Q9NNX6 1-404) (receptor) | 0.0288 |
| Recombinant L-SIGN/CD299 (from UniProt Q9H2X3 1-399) (receptor) | 0.0437 |
